From patent publication US20200057048A1 (published 2020)

Target: T1, human islet-specific glucose-6-phosphatase catalytic subunit-related protein (IGRP) peptide on HLA-DRA*01:01 … (human)
T1 peptide: QHLQKDYRAYYTF
Assay: multimer staining
Description: Three million transduced and sorted GP+envAm12 were plated per well of a 6 well plate in a final volume of 3 ml. Next day 100,000 JURMA-hCD4 were co-cultured with the pre-plated transduced GP+envAm12 in a final volume of 3 ml supplemented with 8 ug/ml of polybrene. This co-culture was maintained during two weeks changing the media every 2 or 3 days. After co-culture, JURMA-hCD4 cells were harvested analyzed by flow cytometry and sorted for high transgene expression. Cells were then stained with PE labeled heterodimers.

B1: IGRP13-25 TCR (TCR, V domains shown)
Valpha: DQQVKQNSPSLSVQEGRISILNCDYTNSMFDYFLWYKKYPAEGPTFLISISSIKDKNEDGRFTVFLNKSAKHLSLHIVPSQPGDSAVYFCAATNSGGSNYKLTFGKGTLLTVNP
Vbeta: DGGITQSPKYLFRKEGQNVTLSCEQNLNHDAMYWYRQDPGQGLRLIYYSQIVNDFQKGDIAEGYSVSREKKESFPLTVTSAQKNPTAFYLCASGGRVYQPQHFGDGTRLSIL
B1: recognises.
